Data reported in patent US20250011363A1, “OPTIMIZED SHORTENED PEPTIDE THAT BINDS TO ACETYLCHOLINE RECEPTOR, AND USE THEREOF” (SKINMED CO., LTD., priority 2021, published 2025).

target: acetylcholine receptor (Homo sapiens, UniProt P02708); assay: SPR binding affinity (RU) of optimized 5mer/6mer/7mer peptides, Examples 6-7; details: 6mer-1 Top sequence; SPR; peptides tested at 10 μM
How it was run: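 Peptides were tested at 10 μM by surface plasmon resonance against the receptor, with binding reported as response units. Library sequences were built from frequent (top) or infrequent (bottom) amino acid combinations in 5mer, 6mer-1 and 6mer-2 series.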

acetylcholine receptor, sequence (P02708 21-457): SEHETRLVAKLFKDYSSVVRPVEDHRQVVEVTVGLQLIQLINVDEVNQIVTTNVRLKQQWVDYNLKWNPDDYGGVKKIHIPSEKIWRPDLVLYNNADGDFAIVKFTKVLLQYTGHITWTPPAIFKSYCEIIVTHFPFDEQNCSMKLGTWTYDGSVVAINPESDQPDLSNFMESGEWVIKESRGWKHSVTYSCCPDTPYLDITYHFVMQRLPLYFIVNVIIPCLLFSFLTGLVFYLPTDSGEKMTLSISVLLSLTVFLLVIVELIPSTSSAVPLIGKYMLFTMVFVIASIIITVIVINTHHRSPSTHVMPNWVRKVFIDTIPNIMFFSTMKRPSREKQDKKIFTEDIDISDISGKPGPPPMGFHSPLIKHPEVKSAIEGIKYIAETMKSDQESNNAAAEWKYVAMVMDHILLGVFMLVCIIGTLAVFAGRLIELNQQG

Substance	Binding affinity
6mer-1-334 (RRRRLR)	154 Ru
6mer-1-237 (RKSRYK)	137 Ru
6mer-1-262 (RKQLQR)	139 Ru

same assay, conditions: 6mer-2 Top sequence; SPR; peptides tested at 10 μM

Substance	Binding affinity
6mer-2-194 (KLRLRK)	154 Ru
6mer-2-196 (KSQRKK)	121 Ru

same assay, conditions: SPR, Resonance Units; 5mer Bottom sequence (bottom combinations); peptides tested at 10 μM

Substance	Binding affinity
5mer-778 (KKDHK)	24 Ru
5mer-670 (KPCVK)	23 Ru
5mer-618 (RMSWK)	19 Ru
5mer-604 (RKEGK)	13 Ru
5mer-606 (RIHWK)	25 Ru
5mer-980 (RKPHR)	33 Ru
5mer-1021 (KITHK)	26 Ru
5mer-1081 (RPNVR)	13 Ru
5mer-1092 (KPMVK)	12 Ru
5mer-905 (RPSPR)	30 Ru

same assay, conditions: SPR, Resonance Units; peptides tested at 10 μM; 6mer-1 Bottom sequence

Substance	Binding affinity
6mer-1-1104 (KRNSAR)	28 Ru
6mer-1-1010 (KKPKHK)	33 Ru

same assay, conditions: SPR, Resonance Units; peptides tested at 10 μM; 6mer-1 Bottom sequence (Table 11)

Substance	Binding affinity
6mer-1-679 (KKAEER)	30 Ru
6mer-1-627 (RRTWWR)	29 Ru
6mer-1-732 (RRAAVR)	26 Ru
6mer-1-670 (KKDWNR)	11 Ru
6mer-1-668 (RKATVK)	17 Ru

same assay, conditions: SPR, Resonance Units; peptides tested at 10 μM; 6mer-2 Bottom sequence

Substance	Binding affinity
6mer-2-786 (RMEMRK)	30 Ru
6mer-2-847 (RYCHKR)	22 Ru
6mer-2-638 (RCWAKR)	30 Ru
6mer-2-943 (KIDHRR)	41 Ru
6mer-2-937 (RASHRR)	35 Ru
6mer-2-835 (RHCGKR)	20 Ru
6mer-2-897 (RPAHKK)	17 Ru
6mer-2-930 (RTWIKR)	37 Ru
6mer-2-707 (RTWKRK)	21 Ru
6mer-2-814 (RYMERK)	28 Ru
6mer-2-623 (KHAHRR)	13 Ru
6mer-2-620 (RHTGRR)	33 Ru

same assay, conditions: SPR, Resonance Units; peptides tested at 10 μM; 6mer-2 Top sequence

Substance	Binding affinity
6mer-2-497 (KSYTRR)	148 Ru
6mer-2-586 (RWLSRK)	121 Ru

same assay, conditions: SPR, Resonance Units; peptides tested at 10 μM; 6mer-2 Top sequence (Table 12)

Substance	Binding affinity
6mer-2-282 (RQQYRK)	151 Ru
6mer-2-387 (KWLCKK)	146 Ru
6mer-2-337 (KQFQKK)	142 Ru

same assay, conditions: SPR, peptides at 10 μM; 6mer-2 Bottom sequence

Substance	Binding affinity
6mer-2-1090 (KEMHKK)	33 Ru
6mer-2-1079 (KCNEKK)	40 Ru

same assay, conditions: SPR, peptides tested at 10 μM; 5mer Top sequence

Substance	Binding affinity
5mer-55 (RRFSR)	58 Ru
5mer-175 (RWQLK)	63 Ru
5mer-301 (KWIRK)	64 Ru
5mer-185 (RRYRR)	86 Ru
5mer-332 (RRYCR)	85 Ru
5mer-473 (RLVQR)	75 Ru
5mer-479 (RQYYK)	70 Ru

same assay, conditions: SPR, peptides tested at 10 μM; 5mer Top sequence (top combinations)

Substance	Binding affinity
5mer-246 (KSFTR)	60 Ru

same assay, conditions: SPR, peptides tested at 10 μM; 6mer-1 Bottom sequence (Table 11)

Substance	Binding affinity
6mer-1-984 (KKESDK)	33 Ru
6mer-1-861 (KRINIR)	21 Ru
6mer-1-799 (RRKKKR)	30 Ru
6mer-1-951 (RKAMDK)	29 Ru
6mer-1-898 (RKATKR)	31 Ru
6mer-1-820 (KRNDGK)	12 Ru

same assay, conditions: SPR, peptides tested at 10 μM; 6mer-1 Top sequence

Substance	Binding affinity
6mer-1-566 (KKSFCR)	148 Ru
6mer-1-575 (KRWVRR)	148 Ru
6mer-1-473 (KKVLSK)	154 Ru
6mer-1-576 (RKRQRR)	153 Ru

same assay, conditions: SPR, peptides tested at 10 μM; 6mer-1 Top sequence (top combinations)

Substance	Binding affinity
6mer-1-84 (RRGQTK)	142 Ru
6mer-1-70 (KKLLYR)	139 Ru

same assay, conditions: SPR; XRRGVRR-7mer and RRGVRRX-7mer

Substance	Binding affinity, values relative to the RRGVRR sequence
3658 (HRRGVRR) [compound 3658]	160
3650 (FRRGVRR) [compound 3650]	139

same assay, conditions: SPR; peptides tested at 10 μM; 5mer Bottom sequence

Substance	Binding affinity
5mer-1124 (KKPVK)	30 Ru
5mer-856 (KPPDR)	23 Ru
5mer-892 (RKPMR)	29 Ru
